Source: publication PMC10031210 (Protein Science : A Publication of the Protein Society, 2023)

B1: FkpA (full-length, dimeric form) (natural protein, E. coli, UniProt P45523 26-270, looked up)
chain: AEAAKPATAADSKAAFKNDDQKSAYALGASLGRYMENSLKEQEKLGIKLDKDQLIAGVQDAFADKSKLSDQEIEQTLQAFEARVKSSAQAKMEKDAADNEAKGKEYREKFAKEKGVKTSSTGLVYQVVEAGKGEAPKDSDTVVVNYKGTLIDGKEFDNSYTRGEPLSFRLDGVIPGWTEGLKNIKKGGKIKLVIPPELAYGKAGVPGIPPNSTLVFDVELLDVKPAPKADAKPEADAKAADSAKK
B2: unfolded outer membrane protein X (uOmpX) (natural protein, E. coli, UniProt P0A917 24-171, looked up)
chain: ATSTVTGGYAQSDAQGQMNKMGGFNLKYRYEEDNSPLGVIGSFTYTEKSRTASSGDYNKNQYYGITAGPAYRINDWASIYGVVGVGYGKFQTTEYPTYKHDTSDYGFSYGAGLQFNPMENVALDFSYEQSRIRSVDVGTWIAGVGYRF

Legend:
[1] = molecular target: B2; assay: cell-based or functional assay
[2] = molecular target: unfolded β-barrel assembly machine A (uBamA) (UniProt P0A940 21-810); assay: AUC
[3] = molecular target: B1; assay: AUC

| decrease of the OmpX folding rate into diC11PC LUVs with FkpA [1] | binding result [2] | binding result [3] | Binder |
| --- | --- | --- | --- |
| 3 fold | binds | – | B1 |
| – | – | binds | B2 |
